Target: G9a or GLP catalytic SET domains
Assay: ITC

- Kd: 4 to 6 µM
Substance: mDnmt3a(39–50)K44me0 peptide

— PMC3286832
